T1: human IL-22 (human, UniProt Q9GZX6 34-179)
T1 sequence: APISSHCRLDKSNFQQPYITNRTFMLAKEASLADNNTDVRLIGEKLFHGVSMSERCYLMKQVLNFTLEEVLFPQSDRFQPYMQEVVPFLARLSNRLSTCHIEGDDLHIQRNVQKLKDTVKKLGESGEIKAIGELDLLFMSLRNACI


target: T1, human IL-22; test: cell-based or functional assay

IC50 of scFv (pM) in BaF3-IL-22 proliferation assay [pM] | IC50 of IgG (pM) in BaF3-IL-22 proliferation assay [pM] | Binder
124 | – | 356A11 scFv (non-germlined) (scFv) scFv: QVQLVQSGAEVKKPGASVKVSCKASGYTFTNYYMHWVRQAPGQGLEWVGWINPYTGSAFYAQKFRGRVTMTRDTSINTAYMELSRLGSDDTAVYYCAREPEKFDSDDSDVWGRGTMVTVSGGGGSSGGGGSGGSGSAQAVLTPPSVSGAPGQRVTISCTGSSSNIGAGYGVHWYQQLPGTAPKLIIYGDSSRPSGVPDRFSGSKSGTSASLAITGLQAEDEADYYCQSYDNSLSGYVFGTGTQLTVLSA
186 | – | 368D04 scFv (non-germlined) (scFv) scFv: EVQLVESGGGVVRPGGSLRLSCAASGFTFDDYGMNWVRQAPGKGLEWVSGVNWNGGTRDYAASVKGRFTISRDNAKNSLYLQMNSLRAEDTALYYCARGWYSGAAWNMGYWGRGTLVTVSSGGGGSGGGGSGGSGGGSGGGGGGSGGGGSAQAVLTQPSSVSGSPGQSITISCTGASGDVGAYNFVSWYQQHPGKTPKLIIYDVNKRPSGVSNRFSGSKSGNTASLTISGLQAEDESDYYCASLVSDFSVVFGGGTKVTVLGAAAH
160 | – | 367D04 scFv (non-germlined) (scFv) scFv: EVQLVESGGGVVRPGGSLRLSCAASGFTFDDYGMNWVRQAPGKGLEWVSGVNWNGGTRDYAASVKGRFTISRDNAKNSLYLQMNSLRAEDTALYYCARGWYSGSPWSLGHWGRGTLVTVSSGGGGSGGGGSGGSGGGSGGSGGGSSGGGSGGGGSAQAVLTQPSSVSGSPGQSVTISCTGASGDVGAYNFVSWYQQHPGKTPKLIIYDVNKRPSGVSNRFSGSKSGNTASLTISRLQAEDESDYYCSSYTSRYTTEFGGGTKVTVLGAAAH
118 | – | 375G06 scFv (non-germlined) (scFv) scFv: EVQLVQSGAEVKKPGASVKVSCQASGYTFSDYYIHWVRQTPGQGFEWMGWVNPDTGGTRYAQKFQGWVTMTRDMSNTTAYMELPRLRDDDTAVYYCARDLTGYDYYDRWGQGTLVTVSSGGGGSGGGGSGGGGGGSGGGGGGSGGGGSAQSVLTQPPSMSVAPGKTATITCGGNNFRNKRVHWYQQRPGQAPVLVIYYDSDRPSGIPERFSGSRSGNTATLTISRVEAGDEADFYCQVWDFLADEAMFGGGTKLTVLGAAAH
192 | – | 355E04 scFv (non-germlined) (scFv) scFv: QVQLVQSGAEVKKPGASVKVSCKASGYTFTHYYMHWVRQAPGQGLEWVGWINPYTGGAFYAQKFQGRVTMTRDTSINTAYMELSRLGSDDTAVYYCAREPEKFDSPNAEIWGRGTMVTISSEGGGSGGGGSGGSGSAQAVLTQPSSVSGAPGQRVTISCTGSSSNIGAGYGVHWYQQLPGTAPKLLIYGNSNRPSGVPDRFSGSKSGTSASLAITGLQAEDEADYYCQSYDSSLSGYVFGTGTQLTVLSA
104 | – | 376B10 scFv (non-germlined) (scFv) scFv: EVQLVQSGAEVKKPGASVKVSCQASGYTFSDYYIHWVRQTPGQGFEWMGWVNPDTGGTRYAQKFQGWVTMTRDMSNTTAYMELPGLRDDDTAVYYCARDLTGYDQYTAWGQGTLVTVSSGGGGSGGGGSGGGGSAQSVLTQPPSVSVAPGKTATITCGGNNFRNKRVHWYQQRPGQAPVLVIYYDSDRPSGIPERFSGSRSGNTATLTISRVEAGDEADFYCSTFDPFTDRPLFGGGTKLTVLGAAAH

More lines, now with the values behind:

Binder | IC50 of scFv (pM) in BaF3-IL-22 proliferation assay [pM] | IC50 of IgG (pM) in BaF3-IL-22 proliferation assay [pM]
062G05 scFv (non-germlined) (scFv) scFv: QVQLVESGAEVKKPGASVKVSCKASGYTFTSYGISWVRQAPGQGLEWMGWISAYTGNTNYAQKFQGRVTMTTDTSTSTAYMELRSLRSDDTAVYYCARDRGYYDAFDIWGQGTLVTVSSGGGGSGGGGSGGGGSDIQMTQSPSTLSASIGDRVTITCRASEGIYHWLAWYQQKPGKAPKLLIYKASSLASGAPSRFSGSGFGTDFTLTISSLQPDDFATYYCQQMGEWKAAFGGGTKLEIKRAAAH | 182 | –
062A09 scFv (non-germlined) (scFv) scFv: QVQLVESGAEVKKPGASVKVSCKASGYTFTSYGISWVRQAPGQGLEWMGWVSAYTGNTNYAQKFQGRVTMTTDTSTSTAYMELRGLRSDDTAVYYCARDRGYYDAYDIWGQGTLVTVSSGGGGSGGGGSGGGGSDIQMTQSPSTLSASIGDRVTITCRASEGIYHWLAWYQQKPGKAPKLLIYKASSLASGAPSRFSGSGFGTDFTLTISSLQPDDFATYYCQQMGEYNATIGGGTKLEIKRAAAH | 267 | –
355B06 scFv (non-germlined) (scFv) scFv: EVQLVQSGAEVKKPGASVKVSCQASGYTFTDYYMHWVRQAPGQGLEWVGWINPYTGSAFYAQKFRGRATMTRNTSINTAYMELSRLGSDDTAVYYCAREPEKFGESSGQLWGRGTMVTISSGGGGSGGGGSGGSGSAQAVLTQPSSVSGAPGQRVTISCTGSSSNIGPGYGVHWYQQLPGTAPKLLIYGDSNRPSGVPDRFSGSKSGTSASLAITGLQAEDEADYYCQSYDSGLSGYVFGTGTQLTVLSA | 183 | –
166G05 scFv (non-germlined) (scFv) scFv: EVQLVQSGAEVKKPGASVKVSCQASGYTFSDYYIHWVRQTPGQGFEWMGWVNPDTGGTRYAQKFQGWVTMTRDMSNTTAYMELPRLRDDDTAVYYCARDLTGFDPFDIWGQGTLVTVSSGGGGSGGGGSGGGGSAQSVLTQPPSVSVAPGKTATITCGGNNFRNKRVHWYQQRPGQAPVLVIYYDSDRPSGIPERFSGSRSGNTATLTISRVEAGDEADFYCQVWDFLTDSGSFGGGTKLTVLGAAAH | 204 | –
166B06 scFv (non-germlined) (scFv) scFv: EVQLVQSGAEVKKPGASVKVSCQASGYTFSDYYIHWVRQTPGQGFEWMGWVNPDTGGTRYAQKFQGWVTMTRDMSNTTAYMELPRLRDDDTAVYYCARDLTGFDPFDIWGQGTLVTVSSGGGSSGGGGSGGGGSAQSVLTQPPSVSVAPGKTATITCGGNNFRNKRVHWYQQRPGQAPVLVIYYDSDRPSGIPERFSGSRSGNTATLTISRVEAGDEADFYCQVWDLFNDNGVFGGGTKLTVLGAAAH | 460 | –
097D09 scFv (non-germlined) (scFv) scFv: EVQLVESGGGLVTPGGSLRLSCAASGFTFSDYYMSWVRQAPGRGLEWVSAISGSGGSTYYADSVKGRITISRDNAKNSLYLQMSSLRSEDTAVYYCARGLWVWDPLDYWGRGTLVTVSSGGGGSGGGGSGGGGSDIQMTQSPSTLSASIGDRVTITCRASEGIYHWLAWYQQKPGKAPKLLIYKASSLASGAPSRFSGSGFGTDFTLTISSLQPDDFATYYCQQYSEFAWTFGGGTKLEIKRAAAH | 298 | –
062A09 IgG (non-germlined) (antibody, V domains shown) VH: QVQLVESGAEVKKPGASVKVSCKASGYTFTSYGISWVRQAPGQGLEWMGWVSAYTGNTNYAQKFQGRVTMTTDTSTSTAYMELRGLRSDDTAVYYCARDRGYYDAFDIWGQGTLVTVSS VL: DIQMTQSPSTLSASIGDRVTITCRASEGIYHWLAWYQQKPGKAPKLLIYKASSLASGAPSRFSGSGFGTDFTLTISSLQPDDFATYYCQQMGEYNATIGGGTKLEIKR | – | 83
087B03 scFv (non-germlined) (scFv) scFv: EVQLVESGGGVVRPGGSLRLSCAASGFTFDDYGMNWVRQAPGKGLEWVSGVNWNGGTRDYAASVKGRFTISRDNAKNSLYLQMNSLRAEDTALYYCARGWYSGAAWNMGYWGRGTLVTVSSGGGGSGGGGSGGGGSAQAVLTQPSSVSGSPGQSITISCTGASGDVGAYNFVSWYQQHPGKTPKLIIYDVNKRPSGVSNRFSGSKSSNTASLTISGLQAEDESDYYCSSYTSTFSVVFGGGTKVTVLGAAAH | 212 | –
166B06 IgG (non-germlined) (antibody, V domains shown) VH: EVQLVQSGAEVKKPGASVKVSCQASGYTFSDYYIHWVRQTPGQGFEWMGWVNPDTGGTRYAQKFQGWVTMTRDMSNTTAYMELPRLRDDDTAVYYCARDLTGFDPFDIWGQGTLVTVSS VL: QSVLTQPPSVSVAPGKTATITCGGNNFRNKRVHWYQQRPGQAPVLVIYYDSDRPSGIPERFSGSRSGNTATLTISRVEAGDEADFYCQVWDLFNDNGVFGGGTKLTVLG | – | 71
166G05 IgG (non-germlined) (antibody, V domains shown) VH: EVQLVQSGAEVKKPGASVKVSCQASGYTFSDYYIHWVRQTPGQGFEWMGWVNPDTGGTRYAQKFQGWVTMTRDMSNTTAYMELPRLRDDDTAVYYCARDLTGFDPFDIWGQGTLVTVSS VL: QSVLTQPPSVSVAPGKTATITCGGNNFRNKRVHWYQQRPGQAPVLVIYYDSDRPSGIPERFSGSRSGNTATLTISRVEAGDEADFYCQVWDFLTDSGSFGGGTKLTVLG | – | 97
354A08 scFv (non-germlined) (scFv) scFv: QVQLVQSGAEKKPGASVKVSCKASGYTFTDYYMHWVRQAPGQGLEWVGWINPYTGGAFYAQKFRGRVTMTRDTSINTAYMELSRLGSDDTAVYYCAREPERFGDSTGQVWGRGTMVTVSSGGGGSGGGGSGGSRSAQAVLTQPSSVSGAPRQRVTISCTGSSSNIGAGYGVHWYQQLPGTAPKLLIYGNSNRPSGVPDRFSGSKSGTSASLAITGLQAEDEADYYCYHWDKEQSGYVFGTGTQLTVLSA | 219 | –

— patent publication US20070258982A1 (Pfizer, published 2007)
